Experimental data as given in paper PMC9171410 (EMBO Reports, 2022).

T1: Gid10^57–292 (S. cerevisiae, UniProt P53242 57-292)
T1 sequence: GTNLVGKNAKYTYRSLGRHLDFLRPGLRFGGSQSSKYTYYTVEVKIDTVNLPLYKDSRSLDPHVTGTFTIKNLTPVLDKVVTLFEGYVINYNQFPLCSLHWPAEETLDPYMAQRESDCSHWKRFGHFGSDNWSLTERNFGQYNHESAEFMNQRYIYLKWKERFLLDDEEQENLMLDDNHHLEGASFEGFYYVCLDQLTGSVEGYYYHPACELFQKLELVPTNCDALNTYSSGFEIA

T2: Gid10^65–284 (S. cerevisiae, UniProt P53242 65-284)
T2 sequence: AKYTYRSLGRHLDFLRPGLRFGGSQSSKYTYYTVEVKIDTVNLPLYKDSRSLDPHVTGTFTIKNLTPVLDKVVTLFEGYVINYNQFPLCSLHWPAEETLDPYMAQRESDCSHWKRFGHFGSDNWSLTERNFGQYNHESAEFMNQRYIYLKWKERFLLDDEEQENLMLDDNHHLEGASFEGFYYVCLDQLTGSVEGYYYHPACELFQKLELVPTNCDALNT


How the values were obtained:
Gid10^57–292 = target: T1, Gid10^57–292; experiment: ITC
Gid10^65–284 = target: T2, Gid10^65–284; experiment: crystal structure

Binder | Kd (Gid10^57–292) [nM] | binding result (Gid10^65–284)
PFITSRPVAW [Art2 degron peptide PFITSRPVAW] | 1030 | 
PFITSRPW [Art2 degron peptide PFITSRPW] |  | binds
